Experimental data: US20080166343A1 (CSL, published 2008)

Columns and labels:
[1] = target: T1, human IL-13Rα1 on cells (NHDF cells; cells of whole human blood) (human, UniProt P78552 27-427); assay: cell-based or functional assay
T1 sequence: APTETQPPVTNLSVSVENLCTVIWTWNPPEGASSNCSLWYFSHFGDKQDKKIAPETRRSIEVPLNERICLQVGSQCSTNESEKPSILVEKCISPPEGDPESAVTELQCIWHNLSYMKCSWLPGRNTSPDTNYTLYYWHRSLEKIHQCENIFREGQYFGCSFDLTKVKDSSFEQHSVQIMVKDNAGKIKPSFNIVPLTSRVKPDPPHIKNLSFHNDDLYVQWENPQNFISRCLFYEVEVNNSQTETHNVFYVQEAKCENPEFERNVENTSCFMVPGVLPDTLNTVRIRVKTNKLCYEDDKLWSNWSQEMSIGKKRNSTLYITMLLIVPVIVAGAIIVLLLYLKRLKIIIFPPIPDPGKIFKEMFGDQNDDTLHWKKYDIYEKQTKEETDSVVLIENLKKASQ

[2] = target: T1, human IL-13Rα1 on cells (NHDF cells; …); assay: cell-based or functional assay; remark: listed apart in the source

B1: 10G5-3 (antibody, human IgG4 S228P, kappa, V domains shown)
VH: EVQLVQSGAEVKKPGESLKISCKGSGYSFTSYWIGWVRQMPGKGLEWMGVIYPGDSYTRYSPSFQGQVTISADKSISTAYLQWSSLKASDTAMYYCARMPNWGSFDYWGQGTLVTVSS
VL: EIVLTQSPGTLSLSPGERATLSCRASQSISSSYLAWYQQKPGQAPRLLIYGASSRATGIPDRFSGSGSGTDFTLTISRLEPEDFAVYYCQQYEAFGQGTKVEIKR
EC50, inhibition of eotaxin release from NHDF cells upon stimulation by IL-4 [1]: 0.983 µg/mL | EC50, inhibition of eotaxin release from NHDF cells upon stimulation by IL-13 [2]: 0.614 µg/mL
